From US20070009989A1, “Synthetic heparanase molecules and uses thereof” (priority 2003, published 2007)

Key:
[1] = target: T1, wild-type heparanase produced in COS7 cells (hepwt) (Homo sapiens, UniProt Q9Y251); assay: Heparin titration in the fluorimetric heparanase activity assay, wild-type enzyme; type: biochemical
T1 construct: made in house; host or cells: COS7 cells, transient transfection with pcDNA3; partially purified on Heparin Sepharose
T1 sequence (Q9Y251 36-109 limits assumed): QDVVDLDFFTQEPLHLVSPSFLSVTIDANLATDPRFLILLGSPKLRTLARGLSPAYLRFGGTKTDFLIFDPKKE
T1 sequence (Q9Y251 158-543 limits assumed): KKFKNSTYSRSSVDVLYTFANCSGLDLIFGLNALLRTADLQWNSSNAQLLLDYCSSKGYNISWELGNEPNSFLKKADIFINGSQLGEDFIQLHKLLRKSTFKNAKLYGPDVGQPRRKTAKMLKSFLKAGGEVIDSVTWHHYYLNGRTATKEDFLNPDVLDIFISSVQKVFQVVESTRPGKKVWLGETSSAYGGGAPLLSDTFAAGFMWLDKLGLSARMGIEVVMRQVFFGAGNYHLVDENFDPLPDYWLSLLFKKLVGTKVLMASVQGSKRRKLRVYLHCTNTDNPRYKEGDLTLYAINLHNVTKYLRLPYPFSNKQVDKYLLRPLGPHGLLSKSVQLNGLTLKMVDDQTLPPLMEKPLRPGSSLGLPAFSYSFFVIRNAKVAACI
Protocol: (§1) FIG. 7: Ionic strength dependence (panel A), inhibition by heparin (panel B) and pH-dependence (panel C) of wild-type heparanase produced in COS7 cells (●), hepGS3 (□) and hepHyal (▴) single chain constructs produced in insect cells using the fluorimetric activity assay.
(§2) This assay is based on the degradation of FITC-HS monitored by HPLC size exclusion chromatography. 8 μl of purified heparanase was incubated with 5 μL of FITC-HS in a 50 μl of 50 mM MES pH 6, 10% glycerol (heparanase activity buffer, HAB). The reaction mixture was incubated at room temperature for a defined period and the reaction was stopped by the addition of 50 μg of heparin. The mixture was then filtered using Ultrafree-MC centrifugal filter Devices (Millipore). 20 μl were injected on a Superdex 75™ (Pharmacia Biotech) column equilibrated in buffer 50 mM Hepes pH 7.5 150 mM Na2SO4 and connected to a Merck-Hitachi HPLC system. Fluorescent heparan sulfate degradation products were detected by an L-7485 fluorescence detector. Heparanase activity was assessed by monitoring the increase in lower molecular weight heparan sulfate species compared with the intact FITC-HS and quantified by peak area integration.

[2] = target: T2, hepHyal single chain construct produced in insect cells (Homo sapiens, UniProt Q9Y251, DEL119-135/E137F/E138K/K139D/K307R/L140K/L142P/R141T/V136A); assay: Heparin titration in the fluorimetric heparanase activity assay, hepHyal; type: biochemical
T2 construct: made in house; host or cells: Sf9 insect cells (baculovirus, Bac to Bac)
Protocol: as §1, §2

[3] = target: T3, hepGS3 single chain construct produced in insect cells (Homo sapiens, UniProt Q9Y251, DEL111-157/INS109GSGSG/K307R); assay: Heparin titration in the fluorimetric heparanase activity assay, hepGS3; type: biochemical
T3 construct: made in house; host or cells: Sf9 insect cells (baculovirus, Bac to Bac)
T3 sequence (Q9Y251 with tags, fused parts or gaps INS109GSGSG/DEL111-157/K307R): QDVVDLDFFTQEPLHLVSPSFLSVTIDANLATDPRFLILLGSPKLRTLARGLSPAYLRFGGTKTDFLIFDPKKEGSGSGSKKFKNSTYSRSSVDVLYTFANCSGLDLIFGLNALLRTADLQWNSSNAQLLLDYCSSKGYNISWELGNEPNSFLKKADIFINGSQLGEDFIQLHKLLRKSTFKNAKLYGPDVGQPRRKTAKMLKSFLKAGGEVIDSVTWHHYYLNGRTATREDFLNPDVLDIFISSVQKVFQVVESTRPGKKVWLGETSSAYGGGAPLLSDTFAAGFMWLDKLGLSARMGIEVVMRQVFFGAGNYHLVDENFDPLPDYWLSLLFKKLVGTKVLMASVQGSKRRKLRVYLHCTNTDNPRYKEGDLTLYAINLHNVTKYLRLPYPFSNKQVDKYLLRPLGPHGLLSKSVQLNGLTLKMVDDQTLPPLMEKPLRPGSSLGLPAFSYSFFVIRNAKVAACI
Protocol: as §1, §2

[4] = target: T4, hepTEV110/158 (human heparanase with TEV cleavage sites between E109/G110 and Q157/K158)
T4 chain: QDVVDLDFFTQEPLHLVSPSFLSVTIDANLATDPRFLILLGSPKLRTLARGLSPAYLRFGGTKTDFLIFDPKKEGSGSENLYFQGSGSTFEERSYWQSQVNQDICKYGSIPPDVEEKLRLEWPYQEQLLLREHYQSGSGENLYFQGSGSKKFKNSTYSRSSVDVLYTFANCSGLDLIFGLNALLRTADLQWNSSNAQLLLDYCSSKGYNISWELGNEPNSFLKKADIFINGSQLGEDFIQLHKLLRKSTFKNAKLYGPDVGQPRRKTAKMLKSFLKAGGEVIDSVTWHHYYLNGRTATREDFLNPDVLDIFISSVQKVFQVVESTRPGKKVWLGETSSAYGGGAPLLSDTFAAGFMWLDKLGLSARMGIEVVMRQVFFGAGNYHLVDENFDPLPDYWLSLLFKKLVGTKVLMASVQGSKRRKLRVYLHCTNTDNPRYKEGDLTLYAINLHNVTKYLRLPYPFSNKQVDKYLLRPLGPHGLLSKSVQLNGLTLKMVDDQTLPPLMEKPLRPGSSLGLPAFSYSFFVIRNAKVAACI

[5] = target: T5, hepTEV110 (human heparanase with a TEV cleavage site E109-GSGSENLYFQ-GSG-G110 inserted between E109 and G110)
T5 chain: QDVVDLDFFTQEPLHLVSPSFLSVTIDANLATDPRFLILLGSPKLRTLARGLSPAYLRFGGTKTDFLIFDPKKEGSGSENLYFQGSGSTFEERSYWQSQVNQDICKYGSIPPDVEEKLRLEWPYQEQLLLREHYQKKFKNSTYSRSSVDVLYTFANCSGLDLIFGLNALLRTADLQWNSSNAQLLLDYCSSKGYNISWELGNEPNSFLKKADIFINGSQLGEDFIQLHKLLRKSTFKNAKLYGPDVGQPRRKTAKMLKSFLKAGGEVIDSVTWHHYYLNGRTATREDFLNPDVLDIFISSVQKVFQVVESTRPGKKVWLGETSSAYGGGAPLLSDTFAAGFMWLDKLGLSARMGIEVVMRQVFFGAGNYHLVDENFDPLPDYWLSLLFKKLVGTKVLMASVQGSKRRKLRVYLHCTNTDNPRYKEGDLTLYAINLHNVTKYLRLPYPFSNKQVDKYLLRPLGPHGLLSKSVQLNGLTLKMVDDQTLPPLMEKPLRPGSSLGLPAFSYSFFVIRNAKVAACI

[6] = Heparanase activation of TEV cleavage site constructs by digestion with TEV protease; type: biochemical; details: overnight at room temperature, TEV protease 0.5 μM, 50 mM Mes pH 6.0
Protocol: Heparanase activity of these samples was assessed using the fluorimetric method.
The constructs having TEV cleavage sites at positions 109/110 and 109/110+157/158 were expressed, purified on a heparin affinity column and digested overnight at room temperature with TEV protease (0.5 μM) in 50 mM Mes pH 6.0, 10% glycerol, 0.5 mM EDTA.
as §2

[7] = cited from earlier work

T2 sequence (Q9Y251 other isoform, or with tags, fused parts or gaps DEL119-135/V136A/E137F/E138K/K139D/L140K/R141T/L142P/K307R): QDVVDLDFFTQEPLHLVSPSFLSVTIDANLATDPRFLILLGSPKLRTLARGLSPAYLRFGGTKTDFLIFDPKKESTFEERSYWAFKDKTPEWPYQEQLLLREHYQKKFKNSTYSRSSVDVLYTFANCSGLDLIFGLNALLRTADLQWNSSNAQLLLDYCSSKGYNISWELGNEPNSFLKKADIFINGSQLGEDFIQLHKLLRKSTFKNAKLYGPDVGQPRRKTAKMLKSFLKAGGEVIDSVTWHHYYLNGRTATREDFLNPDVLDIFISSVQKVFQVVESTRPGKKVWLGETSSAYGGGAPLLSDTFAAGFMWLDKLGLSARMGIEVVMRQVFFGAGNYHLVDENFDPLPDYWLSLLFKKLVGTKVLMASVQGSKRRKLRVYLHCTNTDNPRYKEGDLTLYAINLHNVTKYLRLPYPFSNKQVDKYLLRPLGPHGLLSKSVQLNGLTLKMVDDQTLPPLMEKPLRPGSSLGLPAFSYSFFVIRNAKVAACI

Question: Which “IC50 of heparin, hepwt” value [1] does the source give for heparin here?
Answer: The value was 0.9 µg/mL.

Question: What about the “IC50 of heparin, hepHyal” value [2] of the same molecule?
Answer: The value was 1.5 µg/mL.

Question: And the “IC50 of heparin, hepGS3” value [3]?
Answer: The value was 1.1 µg/mL.

B1: tobacco etch virus (TEV) protease (protein)
chain: GESLFKGPRDYNPISSTICHLTNESDGHTTSLYGIGFGPFIITNKHLFRRNNGTLLVQSLHGVFKVKNTTTLQQHLIDGRDMIIIRMPKDFPPFPQKLKFREPQREERICLVTTNFQTKSMSSMVSDTSCTFPSSDGIFWKHWIQTKDGQCGSPLVSTRDGFIVGIHSASNFTNTNNYFTSVPKNFMELLTNQEAQQWVSGWRLNADSVLWGGHKVFMSKPEEPFQPVKEATQLMNELVYSQ
Question: For B1, which “proteolytic processing by TEV protease (overnight digestion, Western blot)” value [4] is on record?
Answer: The value was “Complete processing was observed in both cases”.

Question: And the “proteolytic processing by TEV protease (overnight digestion, Western blot)” value [5]?
Answer: The value was “Complete processing was observed in both cases”.

B2: 109/110+157/158: heparanase with TEV cleavage sites between E109/G110 and Q157/K158, SEQ ID NOs:29 and 32 (protein)
chain: QDVVDLDFFTQEPLHLVSPSFLSVTIDANLATDPRFLILLGSPKLRTLARGLSPAYLRFGGTKTDFLIFDPKKEGSGSENLYFQGSGSTFEERSYWQSQVNQDICKYGSIPPDVEEKLRLEWPYQEQLLLREHYQSGSGENLYFQGSGSKKFKNSTYSRSSVDVLYTFANCSGLDLIFGLNALLRTADLQWNSSNAQLLLDYCSSKGYNISWELGNEPNSFLKKADIFINGSQLGEDFIQLHKLLRKSTFKNAKLYGPDVGQPRRKTAKMLKSFLKAGGEVIDSVTWHHYYLNGRTATREDFLNPDVLDIFISSVQKVFQVVESTRPGKKVWLGETSSAYGGGAPLLSDTFAAGFMWLDKLGLSARMGIEVVMRQVFFGAGNYHLVDENFDPLPDYWLSLLFKKLVGTKVLMASVQGSKRRKLRVYLHCTNTDNPRYKEGDLTLYAINLHNVTKYLRLPYPFSNKQVDKYLLRPLGPHGLLSKSVQLNGLTLKMVDDQTLPPLMEKPLRPGSSLGLPAFSYSFFVIRNAKVAACI
Question: With B2 as the molecule, how does the “activation of heparanase by TEV protease treatment” value [6] read?
Answer: The value was “activated”.

B3: 50 kDa protein: mature 50 kDa human heparanase fragment, SEQ ID NO:16 (protein)
chain: KKFKNSTYSRSSVDVLYTFANCSGLDLIFGLNALLRTADLQWNSSNAQLLLDYCSSKGYNISWELGNEPNSFLKKADIFINGSQLGEDFIQLHKLLRKSTFKNAKLYGPDVGQPRRKTAKMLKSFLKAGGEVIDSVTWHHYYLNGRTATREDFLNPDVLDIFISSVQKVFQVVESTRPGKKVWLGETSSAYGGGAPLLSDTFAAGFMWLDKLGLSARMGIEVVMRQVFFGAGNYHLVDENFDPLPDYWLSLLFKKLVGTKVLMASVQGSKRRKLRVYLHCTNTDNPRYKEGDLTLYAINLHNVTKYLRLPYPFSNKQVDKYLLRPLGPHGLLSKSVQLNGLTLKMVDDQTLPPLMEKPLRPGSSLGLPAFSYSFFVIRNAKVAACI
modifications: Human
Question: For B3, which “activity if expressed as such in mammalian cells” value ([7]; Hulett et al. 1999) is on record?
Answer: The value was “inactive”.

Question: What about the “specific activity relative to the unprocessed 65 kDa precursor” value ([7]; Vlodavsky et al. 1999) of the same molecule?
Answer: Its value is “at least 100 fold”.

B4: 109/110: heparanase with TEV protease cleavage site between E109 and G110, protein SEQ ID NO:31 (protein)
chain: MLLRSKPALPPPLMLLLLGPLGPLSPGALPRPAQAQDVVDLDFFTQEPLHLVSPSFLSVTIDANLATDPRFLILLGSPKLRTLARGLSPAYLRFGGTKTDFLIFDPKKEGSGSENLYFQGSGSTFEERSYWQSQVNQDICKYGSIPPDVEEKLRLEWPYQEQLLLREHYQKKFKNSTYSRSSVDVLYTFANCSGLDLIFGLNALLRTADLQWNSSNAQLLLDYCSSKGYNISWELGNEPNSFLKKADIFINGSQLGEDFIQLHKLLRKSTFKNAKLYGPDVGQPRRKTAKMLKSFLKAGGEVIDSVTWHHYYLNGRTATREDFLNPDVLDIFISSVQKVFQVVESTRPGKKVWLGETSSAYGGGAPLLSDTFAAGFMWLDKLGLSARMGIEVVMRQVFFGAGNYHLVDENFDPLPDYWLSLLFKKLVGTKVLMASVQGSKRRKLRVYLHCTNTDNPRYKEGDLTLYAINLHNVTKYLRLPYPFSNKQVDKYLLRPLGPHGLLSKSVQLNGLTLKMVDDQTLPPLMEKPLRPGSSLGLPAFSYSFFVIRNAKVAACI
modifications: hep TEV110
Question: For B4, which “activation of heparanase by TEV protease treatment” value [6] is on record?
Answer: Its value is “not sufficient for eliciting activation”.
